In patent US20240270821A1, “GIP/GLP1/GCG TRI-RECEPTOR AGONISTS AND USES THEREOF” (priority 2023, published 2024):
Residue numbers refer to the chain shown, from its start.

T1: human GIP receptor (human) (UniProt P48546)
T1 sequence (looked up): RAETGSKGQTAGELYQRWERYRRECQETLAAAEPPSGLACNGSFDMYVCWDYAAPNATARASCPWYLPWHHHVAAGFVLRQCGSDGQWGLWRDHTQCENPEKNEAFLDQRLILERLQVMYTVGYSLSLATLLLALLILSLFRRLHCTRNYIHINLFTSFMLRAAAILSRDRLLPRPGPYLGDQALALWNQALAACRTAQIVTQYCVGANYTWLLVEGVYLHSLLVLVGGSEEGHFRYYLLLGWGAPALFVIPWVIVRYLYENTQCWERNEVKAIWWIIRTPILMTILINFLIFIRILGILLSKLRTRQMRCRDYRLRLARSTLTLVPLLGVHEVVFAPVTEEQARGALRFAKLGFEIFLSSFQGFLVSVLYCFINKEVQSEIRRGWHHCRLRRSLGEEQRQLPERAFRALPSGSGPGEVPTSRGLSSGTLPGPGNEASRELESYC

B1: Example 1165 (peptide)
chain: YXQGTXTSDXXIXLDXKAQXEFIEXLIEGGPSSGEPPPSGE
modifications: non-natural residues (Aib, αMeF, 4Pal, Orn, Me4Pal); lipidated Lys; C-amide; synthetic construct; SITE 2: note = 2-Aminoisobutyric Acid; SITE 6: note = alpha-methyl-L-phenylalanine; SITE 10: note = 3-(4-Pyridyl)-L-alanine; SITE 11: note = alpha-methyl-L-serine; SITE 13: note = alpha-methyl-leucine; SITE 16: note = L-ornithine; SITE 17: note = Lysine is chemically modified th
B2: Example 1171 (peptide)
chain: B1 chain
modifications: non-natural residues, (γGlu)2-C18 diacid lysine acylation, C-terminal amide; synthetic construct; SITE 2: note = 2-Aminoisobutyric Acid; SITE 6: note = alpha-methyl-L-phenylalanine; SITE 10: note = 3-(4-Pyridyl)-L-alanine; SITE 11: note = alpha-methyl-L-serine; SITE 13: note = alpha-methyl-leucine; SITE 16: note = L-ornithine; SITE 17: note = Lysine is chemically modified th
B3: Example 1176 (peptide)
chain: B1 chain with E35A
modifications: non-natural residues; lipidated Lys; C-terminal amide; synthetic construct; SITE 2: note = 2-Aminoisobutyric Acid; SITE 6: note = alpha-methyl-2-fluoro-L-phenylalanine; SITE 10: note = 3-(4-Pyridyl)-L-alanine; SITE 11: note = alpha-methyl-L-serine; SITE 13: note = alpha-methyl-leucine; SITE 16: note = L-ornithine; SITE 17: note = Lysine is chemically mo
B4: Example 1168 (peptide)
chain: YXQGTXTSDXXIXLDXKAQXEFIEXLIEGGPSSGAPPPSGGGE
modifications: non-natural residues, AEEA-γGlu-C18 diacid lysine acylation, C-terminal amide; synthetic construct; SITE 2: note = 2-Aminoisobutyric Acid; SITE 6: note = alpha-methyl-L-phenylalanine; SITE 10: note = 3-(4-Pyridyl)-L-alanine; SITE 11: note = alpha-methyl-L-serine; SITE 13: note = alpha-methyl-leucine; SITE 16: note = L-ornithine; SITE 17: note = Lysine is chemically modified th
B5: Example 1174 (peptide)
chain: B4 chain
modifications: non-natural residues (Aib, αMeF, 4Pal, Orn, Me4Pal); lipidated Lys; C-amide; synthetic construct; SITE 2: note = 2-Aminoisobutyric Acid; SITE 6: note = alpha-methyl-L-phenylalanine; SITE 10: note = 3-(4-Pyridyl)-L-alanine; SITE 11: note = alpha-methyl-L-serine; SITE 13: note = alpha-methyl-leucine; SITE 16: note = L-ornithine; SITE 17: note = Lysine is chemically modified th
B6: Example 1180 (peptide)
chain: B4 chain
modifications: Non-natural residues; K acylated AEEA-(γGlu)2-C18 diacid; C-terminal amide; synthetic construct; SITE 2: note = 2-Aminoisobutyric Acid; SITE 6: note = alpha-methyl-2-fluoro-L-phenylalanine; SITE 10: note = 3-(4-Pyridyl)-L-alanine; SITE 11: note = alpha-methyl-L-serine; SITE 13: note = alpha-methyl-leucine; SITE 16: note = L-ornithine; SITE 17: note = Lysine is chemically mo
B7: Example 1181 (peptide)
chain: B4 chain with A35E
modifications: non-natural residues, AEEA-(γGlu)2-C18 diacid acyl on K, C-terminal amide; synthetic construct; SITE 2: note = 2-Aminoisobutyric Acid; SITE 6: note = alpha-methyl-2-fluoro-L-phenylalanine; SITE 10: note = 3-(4-Pyridyl)-L-alanine; SITE 11: note = alpha-methyl-L-serine; SITE 13: note = alpha-methyl-leucine; SITE 16: note = L-ornithine; SITE 17: note = Lysine is chemically mo
B8: Example 1175 (peptide)
chain: B4 chain with A35E
modifications: Aib, αMe residues, 4Pal, Orn, Me4Pal; acylated K; amide; synthetic construct; SITE 2: note = 2-Aminoisobutyric Acid; SITE 6: note = alpha-methyl-L-phenylalanine; SITE 10: note = 3-(4-Pyridyl)-L-alanine; SITE 11: note = alpha-methyl-L-serine; SITE 13: note = alpha-methyl-leucine; SITE 16: note = L-ornithine; SITE 17: note = Lysine is chemically modified th
B9: Example 1185 (peptide)
chain: B4 chain with X6F, I12Q, E21Q, E28A, G29X
modifications: not fully specified; non-natural residues; Lys acylated with γGlu-C18 diacid; C-terminal amide; synthetic construct; SITE 2: note = 2-Aminoisobutyric Acid; SITE 10: note = 3-(4-Pyridyl)-L-alanine; SITE 11: note = alpha-methyl-L-serine; SITE 13: note = alpha-methyl-leucine; SITE 16: note = L-ornithine; SITE 17: note = Lysine is chemically modified through conjugation of the epsilon-amino group
B10: Example 1186 (peptide)
chain: B4 chain with X6F, I12Q, E21Q, E24Q, G29X
modifications: not fully specified; Aib, 4Pal, Me4Pal, alpha-methyl residues, Orn, lipidated Lys, amide; synthetic construct; SITE 2: note = 2-Aminoisobutyric Acid; SITE 10: note = 3-(4-Pyridyl)-L-alanine; SITE 11: note = alpha-methyl-L-serine; SITE 13: note = alpha-methyl-leucine; SITE 16: note = L-ornithine; SITE 17: note = Lysine is chemically modified through conjugation of the epsilon-amino group
B11: Example 1169 (peptide)
chain: B4 chain with A35E
modifications: non-natural residues; acylated Lys C18 diacid; C-term amide; synthetic construct; SITE 2: note = 2-Aminoisobutyric Acid; SITE 6: note = alpha-methyl-L-phenylalanine; SITE 10: note = 3-(4-Pyridyl)-L-alanine; SITE 11: note = alpha-methyl-L-serine; SITE 13: note = alpha-methyl-leucine; SITE 16: note = L-ornithine; SITE 17: note = Lysine is chemically modified th
B12: Example 1184 (peptide)
chain: B4 chain with X6F, I12Q, E21Q, G29X, A35E
modifications: non-natural residues; Lys acylated with γGlu-C18 diacid; C-terminal amide; synthetic construct; SITE 2: note = 2-Aminoisobutyric Acid; SITE 10: note = 3-(4-Pyridyl)-L-alanine; SITE 11: note = alpha-methyl-L-serine; SITE 13: note = alpha-methyl-leucine; SITE 16: note = L-ornithine; SITE 17: note = Lysine is chemically modified through conjugation of the epsilon-amino group
B13: Example 1182 (peptide)
chain: YXQGTFTSDXXQXLDXKAQXQFIEXLIAXGPSSGEPPPSGGGE
modifications: non-natural residues; lysine acylated with C18 diacid; C-terminal amide; synthetic construct; SITE 2: note = 2-Aminoisobutyric Acid; SITE 10: note = 3-(4-Pyridyl)-L-alanine; SITE 11: note = alpha-methyl-L-serine; SITE 13: note = alpha-methyl-leucine; SITE 16: note = L-ornithine; SITE 17: note = Lysine is chemically modified through conjugation of the epsilon-amino group
B14: Example 1183 (peptide)
chain: B13 chain with E24Q, A28E
modifications: non-natural residues; lipidated Lys; C-terminal amide; synthetic construct; SITE 2: note = 2-Aminoisobutyric Acid; SITE 10: note = 3-(4-Pyridyl)-L-alanine; SITE 11: note = alpha-methyl-L-serine; SITE 13: note = alpha-methyl-leucine; SITE 16: note = L-ornithine; SITE 17: note = Lysine is chemically modified through conjugation of the epsilon-amino group

Each binder was assayed against hGLP-1R (Homo sapiens, UniProt P43220) (assay: cell-based or functional assay).
Sequence of hGLP-1R (P43220 24-463): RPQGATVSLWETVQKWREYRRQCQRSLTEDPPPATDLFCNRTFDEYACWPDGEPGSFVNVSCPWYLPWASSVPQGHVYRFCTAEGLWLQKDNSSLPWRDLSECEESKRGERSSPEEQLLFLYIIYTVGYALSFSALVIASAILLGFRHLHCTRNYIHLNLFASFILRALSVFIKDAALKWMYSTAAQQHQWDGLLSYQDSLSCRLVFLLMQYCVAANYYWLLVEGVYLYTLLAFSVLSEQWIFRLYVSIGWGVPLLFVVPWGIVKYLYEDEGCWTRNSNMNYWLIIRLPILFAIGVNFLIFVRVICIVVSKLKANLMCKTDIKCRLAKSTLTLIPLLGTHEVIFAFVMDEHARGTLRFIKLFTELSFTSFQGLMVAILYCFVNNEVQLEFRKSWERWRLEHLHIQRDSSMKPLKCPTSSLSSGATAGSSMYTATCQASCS

B1 and B2 are within 1.5-fold of each other in Relative cAMP EC50: 0.632 nM for the first, 0.529 nM for the second.

B4 and B5 are within 1.5-fold of each other in Relative cAMP EC50: 0.422 nM for the first, 0.454 nM for the second.

B6 and B7 are within 1.5-fold of each other in Relative cAMP EC50: 0.445 nM for the first, 0.664 nM for the second.

B8 and B9 are within 1.5-fold of each other in Relative cAMP EC50: 0.572 nM for the first, 0.762 nM for the second.

B10 and B11 are within 1.5-fold of each other in Relative cAMP EC50: 0.594 nM for the first, 0.613 nM for the second.

B12 and B13 are within 1.5-fold of each other in Relative cAMP EC50: 1.18 nM for the first, 0.797 nM for the second.

B14 gave a Relative cAMP EC50 of 0.769 nM.

First: B1
Second: B2
The cAMP Rel EC50 (in the presence of 1% HSA) of the first is 1.7-fold higher: 87.7 nM for the first, 52.9 nM for the second.

B3 and B4 are within 1.5-fold of each other in cAMP Rel EC50 (in the presence of 1% HSA): 43.8 nM for the first, 65.4 nM for the second.

First: B5
Second: B6
The cAMP Rel EC50 (in the presence of 1% HSA) of the first is 1.7-fold higher: 60.2 nM for the first, 35.6 nM for the second.

B7 and B8 are within 1.5-fold of each other in cAMP Rel EC50 (in the presence of 1% HSA): 48.2 nM for the first, 60.7 nM for the second.

B9 and B10 are within 1.5-fold of each other in cAMP Rel EC50 (in the presence of 1% HSA): 66.1 nM for the first, 52.1 nM for the second.

Compared with B11, B12 is 2.2-fold higher in cAMP Rel EC50 (in the presence of 1% HSA): 80 nM for the first, 179 nM for the second.

Going from B13 to B14, the cAMP Rel EC50 (in the presence of 1% HSA) falls from 80.4 nM to 53.6 nM (1.5-fold).

Each binder was assayed against T1, human GIP receptor (human) (assay: cell-based or functional assay).

B1 and B2 are within 1.5-fold of each other in Relative cAMP EC50: 0.0121 nM for the first, 0.00953 nM for the second.

B4 and B5 are within 1.5-fold of each other in Relative cAMP EC50: 0.00839 nM for the first, 0.00896 nM for the second.

First: B6
Second: B7
The Relative cAMP EC50 of the first is 1.9-fold lower: 0.00602 nM for the first, 0.0115 nM for the second.

First: B8
Second: B9
The Relative cAMP EC50 of the first is 2.8-fold lower: 0.00962 nM for the first, 0.0266 nM for the second.

Going from B10 to B11, the Relative cAMP EC50 falls from 0.0404 nM to 0.011 nM (3.7-fold).

Compared with B12, B13 is 2.2-fold lower in Relative cAMP EC50: 0.071 nM for the first, 0.0316 nM for the second.

B14 gave a Relative cAMP EC50 of 0.0484 nM.

Going from B1 to B2, the cAMP Rel EC50 (in the presence of 1% HSA) falls from 1.36 nM to 0.718 nM (1.9-fold).

Compared with B3, B4 is 2.2-fold higher in cAMP Rel EC50 (in the presence of 1% HSA): 0.462 nM for the first, 0.999 nM for the second.

Going from B5 to B6, the cAMP Rel EC50 (in the presence of 1% HSA) falls from 0.707 nM to 0.341 nM (2.1-fold).

B7 and B8 are within 1.5-fold of each other in cAMP Rel EC50 (in the presence of 1% HSA): 0.666 nM for the first, 0.768 nM for the second.

B9 and B10 are within 1.5-fold of each other in cAMP Rel EC50 (in the presence of 1% HSA): 2.31 nM for the first, 3.17 nM for the second.

First: B11
Second: B12
The cAMP Rel EC50 (in the presence of 1% HSA) of the first is 7.1-fold lower: 1.18 nM for the first, 8.39 nM for the second.

B13 and B14 are within 1.5-fold of each other in cAMP Rel EC50 (in the presence of 1% HSA): 2.73 nM for the first, 3.16 nM for the second.

What follows are binders tested against human glucagon receptor (human) (UniProt P47871) (assay: cell-based or functional assay).
Sequence of human glucagon receptor (human) (P47871 26-477): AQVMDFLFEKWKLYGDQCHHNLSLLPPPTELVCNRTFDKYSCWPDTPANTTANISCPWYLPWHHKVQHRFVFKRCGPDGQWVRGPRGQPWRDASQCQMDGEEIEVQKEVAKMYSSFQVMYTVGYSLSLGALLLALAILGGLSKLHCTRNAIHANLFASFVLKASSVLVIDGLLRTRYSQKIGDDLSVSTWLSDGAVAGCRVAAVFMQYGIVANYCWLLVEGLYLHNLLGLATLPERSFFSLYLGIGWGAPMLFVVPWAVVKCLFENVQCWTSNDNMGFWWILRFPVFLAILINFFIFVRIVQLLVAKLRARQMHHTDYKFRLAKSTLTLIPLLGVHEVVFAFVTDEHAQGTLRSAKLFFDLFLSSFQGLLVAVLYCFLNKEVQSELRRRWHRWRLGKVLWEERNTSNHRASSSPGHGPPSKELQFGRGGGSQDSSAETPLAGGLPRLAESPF

B1 and B2 are within 1.5-fold of each other in Relative cAMP EC50: 2.68 nM for the first, 2.19 nM for the second.

B4 and B5 are within 1.5-fold of each other in Relative cAMP EC50: 2.63 nM for the first, 2.58 nM for the second.

B6 and B7 are within 1.5-fold of each other in Relative cAMP EC50: 3.16 nM for the first, 3.34 nM for the second.

B8 and B9 are within 1.5-fold of each other in Relative cAMP EC50: 2.08 nM for the first, 1.64 nM for the second.

First: B10
Second: B11
The Relative cAMP EC50 of the first is 1.7-fold lower: 1.46 nM for the first, 2.43 nM for the second.

B12 and B13 are within 1.5-fold of each other in Relative cAMP EC50: 1.5 nM for the first, 1.24 nM for the second.

B14 was tested, and the Relative cAMP EC50 was 1.38 nM.

Going from B1 to B2, the cAMP Rel EC50 (in the presence of 1% HSA) falls from 358 nM to 233 nM (1.5-fold).

First: B3
Second: B4
The cAMP Rel EC50 (in the presence of 1% HSA) of the first is 1.6-fold lower: 229 nM for the first, 364 nM for the second.

Going from B5 to B6, the cAMP Rel EC50 (in the presence of 1% HSA) falls from 347 nM to 205 nM (1.7-fold).

B7 and B8 are within 1.5-fold of each other in cAMP Rel EC50 (in the presence of 1% HSA): 203 nM for the first, 282 nM for the second.

B9 and B10 are within 1.5-fold of each other in cAMP Rel EC50 (in the presence of 1% HSA): 206 nM for the first, 164 nM for the second.

B11 and B12 are within 1.5-fold of each other in cAMP Rel EC50 (in the presence of 1% HSA): 304 nM for the first, 295 nM for the second.

B13 and B14 are within 1.5-fold of each other in cAMP Rel EC50 (in the presence of 1% HSA): 172 nM for the first, 127 nM for the second.
